Consider 16 variants from FireProtDB (doi:10.1002/pro.100).

The chains are these.
B1: Prolactin, P01236 (parent)
chain: MNIKGSPWKGSLLLLLVSNLLLCQSVAPLPICPGGAARCQVTLRDLFDRAVVLSHYIHNLSSEMFSEFDKRYTHGRGFITKAINSCHTSSLATPEDKEQAQQMNQKDFLSLIVSILRSWNEPLYHLVTEVRGMQEAPEAILSKAVEIEEQTKRLLEGMELIVSQVHPETKENEIYPVWSGLPSLQMADEESRLSAYYNLLHCLRRDSHKIDNYLKLLKCRIIHNNNC

This data set covers variants of B1. To be noted: Homo sapiens, 25 °C, Urea, Fluorescence, Potassium phosphate 25 mM, NaCl 25 mM, reversible: Yes, structure 2Q98, whole UniProt chain shown.

Regarding H58A, under “pH 5.8”, the “ddG of mutation (higher = less stable)” value was -13 kJ/mol, the denaturant m value stood at 1.2 kcal/mol/M, the “denaturant midpoint (higher = more stable)” value (shortened to “denaturant midpoint”) came to 6.18 M and the unfolding free energy worked out at 31 kJ/mol. In addition, where the note is “pH 7.8”, the “ddG of mutation (higher = less stable)” value is -8.58 kJ/mol, the denaturant m value stood at 1.51 kcal/mol/M, the “denaturant midpoint” value is 6.79 M and the unfolding free energy is 42.9 kJ/mol.

In the case of H125A, where the note is “pH 5.8”, the “ddG of mutation (higher = less stable)” value was -4.48 kJ/mol, the denaturant m value came out at 0.94 kcal/mol/M, the “denaturant midpoint” value turned out to be 5.72 M and the unfolding free energy was 22.5 kJ/mol. Besides, for the setting “pH 7.8”, the “ddG of mutation (higher = less stable)” value is -1.38 kJ/mol, the denaturant m value was found to be 1.4 kcal/mol/M, the “denaturant midpoint” value was determined as 6.1 M and the unfolding free energy was found to be 35.7 kJ/mol.

As to H55A H58A H208A, under “pH 5.8”, the “ddG of mutation (higher = less stable)” value was -14.3 kJ/mol, the denaturant m value was 1.16 kcal/mol/M, the “denaturant midpoint” value came to 6.67 M and the unfolding free energy came out at 32.3 kJ/mol. Where the note is “pH 7.8”, the “ddG of mutation (higher = less stable)” value was -13 kJ/mol, the denaturant m value stood at 1.59 kcal/mol/M, the “denaturant midpoint” value was 7.1 M and the unfolding free energy came out at 47.3 kJ/mol.

Take H223A: where the note is “pH 5.8”, the “ddG of mutation (higher = less stable)” value was 0.126 kJ/mol, the denaturant m value was 0.81 kcal/mol/M, the “denaturant midpoint” value is 5.29 M and the unfolding free energy was found to be 17.9 kJ/mol. Under “pH 7.8”, the “ddG of mutation (higher = less stable)” value was -0.502 kJ/mol, the denaturant m value is 1.42 kcal/mol/M, the “denaturant midpoint” value is 5.85 M and the unfolding free energy was determined as 34.8 kJ/mol.

Regarding H55A H208A, where the note is “pH 5.8”, the “ddG of mutation (higher = less stable)” value was -8.62 kJ/mol, the denaturant m value was determined as 1.05 kcal/mol/M, the “denaturant midpoint” value was 6.08 M and the unfolding free energy was 26.6 kJ/mol. For the same variant, for the setting “pH 7.8”, the “ddG of mutation (higher = less stable)” value is -10.8 kJ/mol, the denaturant m value stood at 1.62 kcal/mol/M, the “denaturant midpoint” value came to 6.64 M and the unfolding free energy is 45.1 kJ/mol.

For the variant H58A H201A H208A, where the note is “pH 5.8”, the “ddG of mutation (higher = less stable)” value is -16.7 kJ/mol, the denaturant m value was 1.22 kcal/mol/M, the “denaturant midpoint” value amounted to 6.81 M and the unfolding free energy turned out to be 34.6 kJ/mol. For the same variant, for the setting “pH 7.8”, the “ddG of mutation (higher = less stable)” value is -3.64 kJ/mol, the denaturant m value turned out to be 1.31 kcal/mol/M, the “denaturant midpoint” value turned out to be 6.94 M and the unfolding free energy was determined as 37.9 kJ/mol.

In the case of H55A H58A, under “pH 7.8”, the “ddG of mutation (higher = less stable)” value was -5.94 kJ/mol, the denaturant m value was 1.39 kcal/mol/M, the “denaturant midpoint” value worked out at 6.94 M and the unfolding free energy was 40.3 kJ/mol.

Regarding H201A, for the setting “pH 5.8”, the “ddG of mutation (higher = less stable)” value is -1 kJ/mol, the denaturant m value is 0.76 kcal/mol/M, the “denaturant midpoint” value was 5.98 M and the unfolding free energy is 19 kJ/mol. Further, where the note is “pH 7.8”, the “ddG of mutation (higher = less stable)” value was found to be 1.46 kJ/mol, the denaturant m value came to 1.26 kcal/mol/M, the “denaturant midpoint” value came to 6.22 M and the unfolding free energy turned out to be 32.8 kJ/mol.

In the case of H208A, under “pH 5.8”, the “ddG of mutation (higher = less stable)” value was -5.82 kJ/mol, the denaturant m value was determined as 0.96 kcal/mol/M, the “denaturant midpoint” value is 5.94 M and the unfolding free energy was 23.8 kJ/mol. For the same variant, where the note is “pH 7.8”, the “ddG of mutation (higher = less stable)” value turned out to be 0.167 kJ/mol, the denaturant m value came out at 1.28 kcal/mol/M, the “denaturant midpoint” value turned out to be 6.36 M and the unfolding free energy turned out to be 34.1 kJ/mol.

H58A H208A: under “pH 5.8”, the “ddG of mutation (higher = less stable)” value was -12.8 kJ/mol, the denaturant m value was found to be 1.17 kcal/mol/M, the “denaturant midpoint” value turned out to be 6.31 M and the unfolding free energy came out at 30.8 kJ/mol.

In the case of H87A, where the note is “pH 5.8”, the “ddG of mutation (higher = less stable)” value is -9.46 kJ/mol, the denaturant m value came to 1.13 kcal/mol/M, the “denaturant midpoint” value is 5.81 M and the unfolding free energy came out at 27.4 kJ/mol. Besides, where the note is “pH 7.8”, the “ddG of mutation (higher = less stable)” value turned out to be 0.0837 kJ/mol, the denaturant m value was found to be 1.35 kcal/mol/M, the “denaturant midpoint” value is 6.08 M and the unfolding free energy stood at 34.2 kJ/mol.

As for H74A, for the setting “pH 5.8”, the “ddG of mutation (higher = less stable)” value was determined as 0.46 kJ/mol, the denaturant m value turned out to be 0.81 kcal/mol/M, the “denaturant midpoint” value was 5.14 M and the unfolding free energy was 17.5 kJ/mol. Moreover, for the setting “pH 7.8”, the “ddG of mutation (higher = less stable)” value was -6.49 kJ/mol, the denaturant m value came out at 1.58 kcal/mol/M, the “denaturant midpoint” value is 6.19 M and the unfolding free energy was 40.8 kJ/mol.

On to H201A H208A, for which, under “pH 5.8”, the “ddG of mutation (higher = less stable)” value was -7.15 kJ/mol, the denaturant m value stood at 0.93 kcal/mol/M, the “denaturant midpoint” value is 6.49 M and the unfolding free energy came out at 25.1 kJ/mol. For the same variant, under “pH 7.8”, the “ddG of mutation (higher = less stable)” value is 1.72 kJ/mol, the denaturant m value turned out to be 1.17 kcal/mol/M, the “denaturant midpoint” value was 6.66 M and the unfolding free energy came out at 32.6 kJ/mol.

As to H55A, under “pH 5.8”, the “ddG of mutation (higher = less stable)” value is -0.377 kJ/mol, the denaturant m value was determined as 0.77 kcal/mol/M, the “denaturant midpoint” value came out at 5.71 M and the unfolding free energy came out at 18.4 kJ/mol.

For H166A, for the setting “pH 5.8”, the “ddG of mutation (higher = less stable)” value is -8.54 kJ/mol, the denaturant m value was 1.08 kcal/mol/M, the “denaturant midpoint” value was determined as 5.87 M and the unfolding free energy was found to be 26.5 kJ/mol. Under “pH 7.8”, the “ddG of mutation (higher = less stable)” value was -2.43 kJ/mol, the denaturant m value is 1.38 kcal/mol/M, the “denaturant midpoint” value turned out to be 6.38 M and the unfolding free energy is 36.7 kJ/mol.

Take H58A H201A: under “pH 5.8”, the “ddG of mutation (higher = less stable)” value was -15.5 kJ/mol, the denaturant m value turned out to be 1.19 kcal/mol/M, the “denaturant midpoint” value was 6.7 M and the unfolding free energy turned out to be 33.5 kJ/mol. In addition, where the note is “pH 7.8”, the “ddG of mutation (higher = less stable)” value is -6.4 kJ/mol, the denaturant m value turned out to be 1.49 kcal/mol/M, the “denaturant midpoint” value was determined as 6.53 M and the unfolding free energy was 40.7 kJ/mol.
